Source: the domain aggregation screens of Martell et al. (2025)

Experiment: soluble fraction after stress (log2 fold change); higher = more stays soluble; pooled small domains, quantitative proteomics
Conditions: stress: pH 4
Outline: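 Aggregation propensity is estimated from the fold change in each domain's soluble amount after acid stress. Pooled small-domain libraries were stressed at pH 4, and higher log2 values mean more stayed soluble.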

Q: With “HMSFMFEISVIRSQYNMQDPESKTGFYNAIAKKLLEFPEKLERDNYTEAVAREYMIPETDLKNLVNSMGG” as the sequence, how does the “soluble fraction (log2)” value read?
A: -1.66

Q: With “HMSFNGTILSNYQKTYPNLAKFTYDQANDALVYEGNFIKLNGYGLSRIDPVFFNMNPDEIFIFIKNG” as the sequence, how does the “soluble fraction (log2)” value read?
A: -2.69

Q: Which “soluble fraction (log2)” value does the source give for “HMSFNTNENKNLLWELMNKHNLFKDIDNQHYQEVQKLFEEEIVFISNNNKSLDLVEQNKKFLSSIITKLNK” here?
A: -1.2

Q: For “HMSFPQVELNTNKGRIVLELNSEKAPKTVANFLEYVRDGFYDGVIFHRVIDGFMIQGGGFDENFKEKA”, which “soluble fraction (log2)” value is on record?
A: -0.275

Q: With “HMSFSPYLVRVSITDLNIRKGPGTNYAKTGKFTGKGVFTIVEMQTGKGSDTGWGRLKSGAGWISLDYTEKI” as the sequence, how does the “soluble fraction (log2)” value read?
A: 0.0318

Q: Which “soluble fraction (log2)” value does the source give for “HMSFSQNIGKRIREERLRLNLTQEKLAEDVNLSMAYIGQVERGDRSLTLDNLIIVAKRLGVTIDYLLS” here?
A: -0.171

Q: Which “soluble fraction (log2)” value does the source give for “HMSFTSQSVLIEIVRGTTQLTPLAAAVGANKREVVLAVHRLKQRGLVVSAGLGQYAATEAGRAFLTAGREV” here?
A: ≥ 0.43

Q: With “HMSFYSVVISQDGSMLVAENRNEIYSNEELLELASEVNEKTGTIGTIGSLMYYKADKGGYTLITFLDNS” as the sequence, how does the “soluble fraction (log2)” value read?
A: -2.05

Q: With “HMSGALDTVVGIRMLKLLSTPIEKSKAFQVGIINKDGKKLRDPTSGERQHYTFLNRFVFKVQYALMRS” as the sequence, how does the “soluble fraction (log2)” value read?
A: -0.072

Q: Which “soluble fraction (log2)” value does the source give for “HMSGDYRPLYPNLPESEKSEAFNLLAGSALPARLDDRTGDIMVPADRYYEARMILANAGFAD” here?
A: 0.053

Q: Which “soluble fraction (log2)” value does the source give for “HMSGEMGIIVAKRLPIRSEPDELATRAFVLKAGTRVKIVKHLNGWLEIVHDGKAGYVQDLEVYVRVIG” here?
A: -0.445

Q: Which “soluble fraction (log2)” value does the source give for “HMSGEPVKSTLPGNVFKILVAVGDSVKKGQRMFVLEAMKMEIDVNAPKDGLVTSIEVQQGQTVANGQILAK” here?
A: 0.181

Q: For “HMSGIESIVIPLKGLDFDMISSTLTPQLKQAIKYDKQSDSIILVGTNAKVNIIAKQVNAMVEVYKLKT”, which “soluble fraction (log2)” value is on record?
A: -0.0326

Q: Which “soluble fraction (log2)” value does the source give for “HMSGIGTTIKMLRENKNISQEELGNVLGVSDKTISSWEINRTEPKMGIVQLLADYFGVSTDYLIKG” here?
A: -0.201

Q: For “HMSGILINGELYKPGEQMSLKQRLSIQARIQMQGEDTVKPEMLKDFYNSGGPLSKEESSEYMKSQN”, which “soluble fraction (log2)” value is on record?
A: -0.321

Q: Which “soluble fraction (log2)” value does the source give for “HMSGIQNNFITRLKKVLAPTIGIAEEISDLLNISIDSAYRRIRGETDFTFEEIYIITRKHKISIDEIYG” here?
A: -2.14

Q: Which “soluble fraction (log2)” value does the source give for “HMSGIVPAAPPLRPDLDIKWHTGDKVRHAKWGEGTIVSVKGEGEETELKIAFPGQGIRPFMQKYAPITR” here?
A: 0.214

Q: Which “soluble fraction (log2)” value does the source give for “HMSGLEDIKKKILEDAGIKKGSVKFVKVDKDYDDGIWKYEIDFVYDGKEYEYEIEVETGKILSRKTEKSD” here?
A: 0.165

Q: With “HMSGLVPAIGTKGEEGYIRESDIPGSNVKNPEEALAYMEWLKTQPSELLIPLYDEQGNVIGQFAVS” as the sequence, how does the “soluble fraction (log2)” value read?
A: -0.681

Q: Which “soluble fraction (log2)” value does the source give for “HMSGMEKLAIQEIEKEIKSFVKGDILIELTGKNRATAYVSEKNVGALIGKKGERINSIEKRLGVGIDVRPY” here?
A: -0.275

Q: For “HMSGMNSDHRVNGNIHTFLIQHDLGTKWSVFTEQLLKQVFRSFLPDKELNFQTTDSTVILKVSLGSDFNEH”, which “soluble fraction (log2)” value is on record?
A: -0.19

Q: For “HMSGPAEDLLAIEGMDKELAYELAARGIRTRDELADQSLDELEAVPGLDPVRAGQLIMAARAHLFENAGQ”, which “soluble fraction (log2)” value is on record?
A: -0.355

Q: Which “soluble fraction (log2)” value does the source give for “HMSGRSVSYSEFMSRVEAGQVSSVTLDGERVEVTGSDGSRYVTIAPSDATLTDKLVAKGVEVRADP” here?
A: 0.196

Q: Which “soluble fraction (log2)” value does the source give for “HMSGSKEQQIVILNNILERQLQAFGLQGNREFPMVTLKNIYNSLSKIIENAGLKNVENYFVNPEQGKQM” here?
A: -0.394

Q: For “HMSGTFIGGELVKPGEPLTPMQRAAITMGLQMGNTYSPEIMEKYNNAGGSPSKEEFENYQKNKS”, which “soluble fraction (log2)” value is on record?
A: 0.22

Q: For “HMSHGFFELKTTQKEALIKLLDSHPNFTHTKTEADLTTAFLKLPMDAEQFNKLLFTNGIVLSHLVKRK”, which “soluble fraction (log2)” value is on record?
A: -0.276

Q: With “HMSHGYVEMQAKDDQVLLAALKNHPWFEKVSIDEETGLTKAILTQPIEAEELNSMLFEKGIVLSHLVKRK” as the sequence, how does the “soluble fraction (log2)” value read?
A: -1.2

Q: Which “soluble fraction (log2)” value does the source give for “HMSHISLGQRYKIEGYLQINLKRTQIAKEIGLPKKTVNQEIKRNSNPQTGIYKAEEAHQLYLDRMQKKRK” here?
A: 0.426

Q: Which “soluble fraction (log2)” value does the source give for “HMSHKYKLTVPETGEGTRVDKFLSSALTELSRTRLKSLIEEGQVTLGGVKLTNPSHRVKSGDELNIEIPVP” here?
A: 0.0568

Q: Which “soluble fraction (log2)” value does the source give for “HMSHPNAPLTPEGRRRLAVLIVEDGWTIRRAAERFQVSPATASKWARRYRAGESLTDRSSRP” here?
A: 0.0223

Q: Which “soluble fraction (log2)” value does the source give for “HMSHSDMEEWTDAVRSRRKKLGLTQVQIARRLGVTSHHFSQIESGRTIPSASLQIEIDRLLKNWND” here?
A: 0.0462

Q: Which “soluble fraction (log2)” value does the source give for “HMSHSVLIDISQLRIGMYIQLDVGWMHHPFPVSSFRVASLEQIEALRTLNLAQVRYFPAKSDPV” here?
A: -1.11

Q: With “HMSIAEMSGARKSAILLLALDEDSAAEIFKYLSAGEVQEISMEMAKLNQVSHDDMKAVLEAFHKETEEFV” as the sequence, how does the “soluble fraction (log2)” value read?
A: -1.02

Q: With “HMSIAKIIGDRIRAYRNQKGWSQEYLAEKADVHHTYIGQLERGEKNATIESISKIAGALGVSLSRLFEN” as the sequence, how does the “soluble fraction (log2)” value read?
A: 0.192

Q: Which “soluble fraction (log2)” value does the source give for “HMSIEHVPGYTTLSKREQEIVHALLTRKTPEELADDLSISINTLNKHISHIYHKLGIRGRMQLFDYA” here?
A: -0.0894

Q: Which “soluble fraction (log2)” value does the source give for “HMSIEIKTIDVKHADLFQLQDILRNLYPELNIVPDQRNNKLILQGKRELLVEAERLTLQLDTE” here?
A: -1.29

Q: Which “soluble fraction (log2)” value does the source give for “HMSIESPEEFNAKFPPGSEIYATNIQKNAIVQSPANAKGDVEILANSMRLTINFRFISKRDT” here?
A: 0.334

Q: Which “soluble fraction (log2)” value does the source give for “HMSIGPQMAGRRVLSGDLIARLEAFEGTVVLGRGVAREDALLIATQAGHVRWEPASRRLWVDSTA” here?
A: -0.0304

Q: For “HMSIHPRDKADLGTALSKWKKGALDDKQLELEVARVFMRTYGKKLEGQALNKAVAAWVAALTQSKK”, which “soluble fraction (log2)” value is on record?
A: ≥ 0.43

Q: For “HMSINIDEEKKILGPNADQIIKGITTWGQGLVSKGIWSDADFEEFKIFAATGNGINALNKVRKYY”, which “soluble fraction (log2)” value is on record?
A: -0.65

Q: For “HMSIQMPDLSITPVTDAKKKIESLQLQYKEVGEYNDSVIAGYVIRTEPASGSYLNEDEEVIIYVSKG”, which “soluble fraction (log2)” value is on record?
A: -0.525

Q: With “HMSISEFNYTEFNGLVEKGQVSEVTISGREIEGRLTSGESFKTYSPETDNSALVGDLLKNNVKINGKP” as the sequence, how does the “soluble fraction (log2)” value read?
A: -0.158

Q: Which “soluble fraction (log2)” value does the source give for “HMSITKDNLSIGTNIRISGFSDIGRIISIPNKGNQVQVQIGSAKMNIKINSIVEIIKEEKDFNKNISN” here?
A: 0.189

Q: With “HMSIYMNIYNEFKKYIIANVYKYDDKLPSVRSIALEYGINPNTVQRAFQLLEDEGYIKTISKKGVYVNYR” as the sequence, how does the “soluble fraction (log2)” value read?
A: 0.112

Q: Which “soluble fraction (log2)” value does the source give for “HMSKAYLSVESNISGARVFVDGQKEGTTPLSDVLLSAGEHLILVKKQGYETYQKRVRFQKGRSMSLYVDLS” here?
A: -0.0554

Q: Which “soluble fraction (log2)” value does the source give for “HMSKDQKKFFIEIVSIRGFGSQIGISILNKLSIPQIINAIKTQNKKEISSIPGIGQKMTERLILELNNKFK” here?
A: -0.691

Q: For “HMSKININTITESELKELPISTVKQKAIQDYLIDRGFISNIYDLLDIKEITSDDVSLLKKVVNVKLPY”, which “soluble fraction (log2)” value is on record?
A: -0.796

Q: For “HMSKIVPVAYSQFLKDVKNGNVSQVEIRGNNIKGINNNGSSFSTYAPNDLSLIDKLEKSNVEIIVMPLE”, which “soluble fraction (log2)” value is on record?
A: -0.232

Q: Which “soluble fraction (log2)” value does the source give for “HMSKKLLVLQTSDDAKAKDVLSQNGYQLDDGDKLSIIETEQTKMADVIKLLSDNAIDIEDVQHVH” here?
A: -0.116

Q: Which “soluble fraction (log2)” value does the source give for “HMSKLQETEIPVALEVEKIPGLSNELKQKLLKIKPQTIGQASRISGITPAAISILMIYIKKNESISAVK” here?
A: -0.399

Q: With “HMSKLQKTKYAGVYFTEDTQTRVKTYVARIVLAGIIDTEVVVGHSNDQHRTNAAIAYQRRLELIQEAKN” as the sequence, how does the “soluble fraction (log2)” value read?
A: -0.372

Q: For “HMSKLSLREIVKKFEEQIIQLHKRGLNHSEISREIVTKNSIDLGDSHIDSLRRAISVHLQTP”, which “soluble fraction (log2)” value is on record?
A: -0.201

Q: With “HMSKPIREVAYETLKNAIVTGEIPAGSRIVETEYAERMHISRTPLREALRKLERDGLVEYVVRRGVVVRAF” as the sequence, how does the “soluble fraction (log2)” value read?
A: -0.303

Q: Which “soluble fraction (log2)” value does the source give for “HMSKPTLTLKSNAYPYNLNGERINNYLGFTYIKKGATLNYQGSKRINGQNYYYIGDGAYIKNTTVGSTNN” here?
A: ≥ 0.43

Q: For “HMSKQDRRIRRTRRLLKESLIQLMQEKEFMNISVREVTERADLNRGTFYLHYQDTRHLLQDIENETL”, which “soluble fraction (log2)” value is on record?
A: -1.86
